Measurements published in the supplement of paper PMC9112550, “Optimization of the antimicrobial peptide Bac7 by deep mutational scanning” (BMC Biology, 2022).

Tested on: Escherichia coli TOP10
Test: shrunken log2 fold change of peptide-encoding DNA abundance (4.5 h post-induction vs induction); higher = less antimicrobial activity (less host growth inhibition)
Conditions: time post-induction: 4.5 h; library: site-saturation at positions 5, 18, 19, 20
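Also: peptides expressed intracellularly from a pBAD plasmid library in pooled LB shake-flask culture, induced with 0.3% L-arabinose, DNA abundance read by NGS, three biological replicates, DESeq2 with apeglm shrinkage.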

RRIRTRPPRLPRPRPRPDFAPRP
shrunken log2 fold change: 0.176

RRIRTRPPRLPRPRPRPDFLPRP
shrunken log2 fold change: -0.169

RRIRTRPPRLPRPRPRPDFMPRP
shrunken log2 fold change: -0.15

RRIRTRPPRLPRPRPRPDIDPRP
shrunken log2 fold change: 0.0151

RRIRTRPPRLPRPRPRPDIWPRP
shrunken log2 fold change: -0.392

RRIRTRPPRLPRPRPRPDKFPRP
shrunken log2 fold change: 0.116

RRIRTRPPRLPRPRPRPDKRPRP
shrunken log2 fold change: -0.0389

RRIRTRPPRLPRPRPRPDLEPRP
shrunken log2 fold change: -0.00853

RRIRTRPPRLPRPRPRPDNMPRP
shrunken log2 fold change: -0.909

RRIRTRPPRLPRPRPRPDPDPRP
shrunken log2 fold change: -0.0398

RRIRTRPPRLPRPRPRPDPMPRP
shrunken log2 fold change: -0.0555

RRIRTRPPRLPRPRPRPDPVPRP
shrunken log2 fold change: -0.216

RRIRTRPPRLPRPRPRPDQCPRP
shrunken log2 fold change: 0.0333

RRIRTRPPRLPRPRPRPDQSPRP
shrunken log2 fold change: -0.0809

RRIRTRPPRLPRPRPRPDREPRP
shrunken log2 fold change: -0.0115

RRIRTRPPRLPRPRPRPDRKPRP
shrunken log2 fold change: 0.00258

RRIRTRPPRLPRPRPRPDRLPRP
shrunken log2 fold change: 0.0294

RRIRTRPPRLPRPRPRPDRTPRP
shrunken log2 fold change: -0.442

RRIRTRPPRLPRPRPRPDSCPRP
shrunken log2 fold change: -0.311

RRIRTRPPRLPRPRPRPDVAPRP
shrunken log2 fold change: -0.0174

RRIRTRPPRLPRPRPRPDVEPRP
shrunken log2 fold change: 0.053

RRIRTRPPRLPRPRPRPDVFPRP
shrunken log2 fold change: 0.0603

RRIRTRPPRLPRPRPRPDWHPRP
shrunken log2 fold change: -0.053

RRIRTRPPRLPRPRPRPDYIPRP
shrunken log2 fold change: -0.323

RRIRTRPPRLPRPRPRPDYLPRP
shrunken log2 fold change: -1.61

RRIRTRPPRLPRPRPRPECRPRP
shrunken log2 fold change: 0.569

RRIRTRPPRLPRPRPRPEEKPRP
shrunken log2 fold change: 0.167

RRIRTRPPRLPRPRPRPEFGPRP
shrunken log2 fold change: 0.0617

RRIRTRPPRLPRPRPRPEFPPRP
shrunken log2 fold change: 0.0504

RRIRTRPPRLPRPRPRPEFVPRP
shrunken log2 fold change: 0.107

RRIRTRPPRLPRPRPRPEGVPRP
shrunken log2 fold change: 0.122

RRIRTRPPRLPRPRPRPEHCPRP
shrunken log2 fold change: -0.0755

RRIRTRPPRLPRPRPRPEIPPRP
shrunken log2 fold change: -0.104

RRIRTRPPRLPRPRPRPEKIPRP
shrunken log2 fold change: 0.0436

RRIRTRPPRLPRPRPRPELFPRP
shrunken log2 fold change: 0.039

RRIRTRPPRLPRPRPRPEMKPRP
shrunken log2 fold change: 0.258

RRIRTRPPRLPRPRPRPENSPRP
shrunken log2 fold change: 0.032

RRIRTRPPRLPRPRPRPEPKPRP
shrunken log2 fold change: 0.376

RRIRTRPPRLPRPRPRPEQQPRP
shrunken log2 fold change: 0.436

RRIRTRPPRLPRPRPRPESLPRP
shrunken log2 fold change: -0.00987

RRIRTRPPRLPRPRPRPESWPRP
shrunken log2 fold change: 0.809

RRIRTRPPRLPRPRPRPETVPRP
shrunken log2 fold change: 0.0349

RRIRTRPPRLPRPRPRPEWHPRP
shrunken log2 fold change: 0.0594

RRIRTRPPRLPRPRPRPEWNPRP
shrunken log2 fold change: -0.05

RRIRTRPPRLPRPRPRPEWSPRP
shrunken log2 fold change: 0.0383

RRIRTRPPRLPRPRPRPFALPRP
shrunken log2 fold change: -0.0597

RRIRTRPPRLPRPRPRPFAMPRP
shrunken log2 fold change: -0.348

RRIRTRPPRLPRPRPRPFAYPRP
shrunken log2 fold change: -0.136

RRIRTRPPRLPRPRPRPFCAPRP
shrunken log2 fold change: -0.00433

RRIRTRPPRLPRPRPRPFCMPRP
shrunken log2 fold change: -0.24

RRIRTRPPRLPRPRPRPFDRPRP
shrunken log2 fold change: 0.0237

RRIRTRPPRLPRPRPRPFDYPRP
shrunken log2 fold change: -0.0205

RRIRTRPPRLPRPRPRPFECPRP
shrunken log2 fold change: -0.143

RRIRTRPPRLPRPRPRPFEMPRP
shrunken log2 fold change: -0.376

RRIRTRPPRLPRPRPRPFEWPRP
shrunken log2 fold change: -0.0651

RRIRTRPPRLPRPRPRPFFPPRP
shrunken log2 fold change: 0.191

RRIRTRPPRLPRPRPRPFIRPRP
shrunken log2 fold change: 0.00496

RRIRTRPPRLPRPRPRPFISPRP
shrunken log2 fold change: -0.0743

RRIRTRPPRLPRPRPRPFIYPRP
shrunken log2 fold change: -0.657

RRIRTRPPRLPRPRPRPFLYPRP
shrunken log2 fold change: -0.786

RRIRTRPPRLPRPRPRPFMKPRP
shrunken log2 fold change: -0.661

RRIRTRPPRLPRPRPRPFPDPRP
shrunken log2 fold change: -0.123

RRIRTRPPRLPRPRPRPFPKPRP
shrunken log2 fold change: -0.112

RRIRTRPPRLPRPRPRPFPMPRP
shrunken log2 fold change: -0.596

RRIRTRPPRLPRPRPRPFQCPRP
shrunken log2 fold change: -0.0173

RRIRTRPPRLPRPRPRPFRCPRP
shrunken log2 fold change: 0.0246

RRIRTRPPRLPRPRPRPFRVPRP
shrunken log2 fold change: -0.108

RRIRTRPPRLPRPRPRPFSPPRP
shrunken log2 fold change: -0.375

RRIRTRPPRLPRPRPRPFVEPRP
shrunken log2 fold change: -0.284

RRIRTRPPRLPRPRPRPFVFPRP
shrunken log2 fold change: -0.295

RRIRTRPPRLPRPRPRPFWFPRP
shrunken log2 fold change: 0.526

RRIRTRPPRLPRPRPRPFYDPRP
shrunken log2 fold change: -0.382

RRIRTRPPRLPRPRPRPFYIPRP
shrunken log2 fold change: -0.57

RRIRTRPPRLPRPRPRPFYLPRP
shrunken log2 fold change: -0.522

RRIRTRPPRLPRPRPRPGAIPRP
shrunken log2 fold change: -0.0669

RRIRTRPPRLPRPRPRPGCAPRP
shrunken log2 fold change: 0.515

RRIRTRPPRLPRPRPRPGCHPRP
shrunken log2 fold change: -0.136

RRIRTRPPRLPRPRPRPGCNPRP
shrunken log2 fold change: 0.0386

RRIRTRPPRLPRPRPRPGEPPRP
shrunken log2 fold change: -0.026

RRIRTRPPRLPRPRPRPGFAPRP
shrunken log2 fold change: 0.33

RRIRTRPPRLPRPRPRPGGDPRP
shrunken log2 fold change: 0.46

RRIRTRPPRLPRPRPRPGGHPRP
shrunken log2 fold change: 0.0329

RRIRTRPPRLPRPRPRPGHAPRP
shrunken log2 fold change: 0.161

RRIRTRPPRLPRPRPRPGHHPRP
shrunken log2 fold change: -0.27

RRIRTRPPRLPRPRPRPGITPRP
shrunken log2 fold change: -0.104

RRIRTRPPRLPRPRPRPGMTPRP
shrunken log2 fold change: -0.2

RRIRTRPPRLPRPRPRPGNYPRP
shrunken log2 fold change: 0.0108

RRIRTRPPRLPRPRPRPGQIPRP
shrunken log2 fold change: 0.0034

RRIRTRPPRLPRPRPRPGQNPRP
shrunken log2 fold change: 0.138

RRIRTRPPRLPRPRPRPGQWPRP
shrunken log2 fold change: 0.0938

RRIRTRPPRLPRPRPRPGSFPRP
shrunken log2 fold change: 0.00381

RRIRTRPPRLPRPRPRPGTYPRP
shrunken log2 fold change: 0.0862

RRIRTRPPRLPRPRPRPGVLPRP
shrunken log2 fold change: 0.08

RRIRTRPPRLPRPRPRPGWHPRP
shrunken log2 fold change: -0.014

RRIRTRPPRLPRPRPRPGWNPRP
shrunken log2 fold change: -0.039

RRIRTRPPRLPRPRPRPGYWPRP
shrunken log2 fold change: -0.0903

RRIRTRPPRLPRPRPRPHDDPRP
shrunken log2 fold change: -0.0991

RRIRTRPPRLPRPRPRPHDIPRP
shrunken log2 fold change: 2.43

RRIRTRPPRLPRPRPRPHDQPRP
shrunken log2 fold change: 0.0187

RRIRTRPPRLPRPRPRPHEKPRP
shrunken log2 fold change: -0.0018

RRIRTRPPRLPRPRPRPHEPPRP
shrunken log2 fold change: -0.197

RRIRTRPPRLPRPRPRPHFCPRP
shrunken log2 fold change: 0.0392

RRIRTRPPRLPRPRPRPHFDPRP
shrunken log2 fold change: -0.385

RRIRTRPPRLPRPRPRPHGFPRP
shrunken log2 fold change: -0.0139

RRIRTRPPRLPRPRPRPHGHPRP
shrunken log2 fold change: -0.136

RRIRTRPPRLPRPRPRPHHIPRP
shrunken log2 fold change: -0.278

RRIRTRPPRLPRPRPRPHHPPRP
shrunken log2 fold change: -0.135

RRIRTRPPRLPRPRPRPHITPRP
shrunken log2 fold change: -0.625

RRIRTRPPRLPRPRPRPHIYPRP
shrunken log2 fold change: -0.00363

RRIRTRPPRLPRPRPRPHLRPRP
shrunken log2 fold change: -0.264

RRIRTRPPRLPRPRPRPHMKPRP
shrunken log2 fold change: -0.712

RRIRTRPPRLPRPRPRPHNGPRP
shrunken log2 fold change: -0.0789

RRIRTRPPRLPRPRPRPHNNPRP
shrunken log2 fold change: -0.894

RRIRTRPPRLPRPRPRPHPKPRP
shrunken log2 fold change: -0.0492

RRIRTRPPRLPRPRPRPHPRPRP
shrunken log2 fold change: 0.467

RRIRTRPPRLPRPRPRPHQEPRP
shrunken log2 fold change: -0.163

RRIRTRPPRLPRPRPRPHQIPRP
shrunken log2 fold change: 0.269

RRIRTRPPRLPRPRPRPHQVPRP
shrunken log2 fold change: -0.0174

RRIRTRPPRLPRPRPRPHRQPRP
shrunken log2 fold change: -0.256

RRIRTRPPRLPRPRPRPHRSPRP
shrunken log2 fold change: 0.0963

RRIRTRPPRLPRPRPRPHTRPRP
shrunken log2 fold change: 0.0252

RRIRTRPPRLPRPRPRPHVEPRP
shrunken log2 fold change: 0.0236

RRIRTRPPRLPRPRPRPHWPPRP
shrunken log2 fold change: -0.078

RRIRTRPPRLPRPRPRPHYVPRP
shrunken log2 fold change: -0.0402

RRIRTRPPRLPRPRPRPIADPRP
shrunken log2 fold change: -0.0123

RRIRTRPPRLPRPRPRPIDDPRP
shrunken log2 fold change: -0.498

RRIRTRPPRLPRPRPRPIDKPRP
shrunken log2 fold change: -0.175

RRIRTRPPRLPRPRPRPIDNPRP
shrunken log2 fold change: -0.51

RRIRTRPPRLPRPRPRPIDQPRP
shrunken log2 fold change: -0.00192

RRIRTRPPRLPRPRPRPIDWPRP
shrunken log2 fold change: 0.042

RRIRTRPPRLPRPRPRPIEHPRP
shrunken log2 fold change: 0.0859

RRIRTRPPRLPRPRPRPIEIPRP
shrunken log2 fold change: -0.0171

RRIRTRPPRLPRPRPRPIFQPRP
shrunken log2 fold change: -0.192

RRIRTRPPRLPRPRPRPIGNPRP
shrunken log2 fold change: -0.0759

RRIRTRPPRLPRPRPRPIKNPRP
shrunken log2 fold change: -0.185

RRIRTRPPRLPRPRPRPILNPRP
shrunken log2 fold change: -0.403

RRIRTRPPRLPRPRPRPILVPRP
shrunken log2 fold change: -0.0468

RRIRTRPPRLPRPRPRPIMPPRP
shrunken log2 fold change: -0.331

RRIRTRPPRLPRPRPRPINFPRP
shrunken log2 fold change: -0.0833

RRIRTRPPRLPRPRPRPINIPRP
shrunken log2 fold change: -0.208

RRIRTRPPRLPRPRPRPIPCPRP
shrunken log2 fold change: -0.0839

RRIRTRPPRLPRPRPRPIPMPRP
shrunken log2 fold change: -0.38

RRIRTRPPRLPRPRPRPIPRPRP
shrunken log2 fold change: 0.299

RRIRTRPPRLPRPRPRPIPSPRP
shrunken log2 fold change: -0.236

RRIRTRPPRLPRPRPRPIQTPRP
shrunken log2 fold change: -0.0398

RRIRTRPPRLPRPRPRPIREPRP
shrunken log2 fold change: -0.0125

RRIRTRPPRLPRPRPRPISAPRP
shrunken log2 fold change: 0.259

RRIRTRPPRLPRPRPRPISVPRP
shrunken log2 fold change: -0.0512

RRIRTRPPRLPRPRPRPITGPRP
shrunken log2 fold change: 0.00283

RRIRTRPPRLPRPRPRPIVLPRP
shrunken log2 fold change: -0.145
